Measurements as given in PMC5897525.

Target: rFel d 1.mFc
Assay: SPR; 25°C; dimeric

Kd: 0.0316 nM | koff: 7.25e-05 s⁻¹
Substance: REGN1908
